The target of series [1] is Dual luciferase reporter (DLR) with N(ε)-acetyl-lysine at K529 of the Firefly enzyme.
The target in series [2] is Dual luciferase reporter (DLR) with N(ε)-tert.-butyl-oxycarbonyl-lysine at K529 of the Firefly enzyme.
Series [3] deals with Dual luciferase reporter (DLR) with N(ε)-allyl-oxycarbonyl-lysine at K529 of the Firefly enzyme.
For series [4], the target named is Dual luciferase reporter (DLR) with N(ε)-crotonyl-lysine at K529 of the Firefly enzyme.
Dual luciferase reporter (DLR) with N(ε)-crotonyl-lysine at K529 of the Firefly enzyme, sequence (chain, as listed by the source): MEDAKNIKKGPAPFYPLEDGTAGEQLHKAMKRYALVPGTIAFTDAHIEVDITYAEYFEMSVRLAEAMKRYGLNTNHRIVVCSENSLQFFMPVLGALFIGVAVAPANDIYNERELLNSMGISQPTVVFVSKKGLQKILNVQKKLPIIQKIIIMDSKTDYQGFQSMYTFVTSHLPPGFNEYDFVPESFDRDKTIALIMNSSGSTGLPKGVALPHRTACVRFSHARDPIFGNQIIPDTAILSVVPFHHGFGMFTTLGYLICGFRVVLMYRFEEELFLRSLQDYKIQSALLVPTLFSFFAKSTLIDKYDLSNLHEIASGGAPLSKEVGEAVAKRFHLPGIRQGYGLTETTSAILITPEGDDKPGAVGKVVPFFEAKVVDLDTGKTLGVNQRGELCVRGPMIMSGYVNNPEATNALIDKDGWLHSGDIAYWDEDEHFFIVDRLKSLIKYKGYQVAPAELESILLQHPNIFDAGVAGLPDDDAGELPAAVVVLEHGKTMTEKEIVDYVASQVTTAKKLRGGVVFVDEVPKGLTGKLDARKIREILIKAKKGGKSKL

Dual luciferase reporter (DLR) with N(ε)-acetyl-lysine at K529 of the Firefly enzyme, sequence (chain, as listed by the source): as above
Dual luciferase reporter (DLR) with N(ε)-allyl-oxycarbonyl-lysine at K529 of the Firefly enzyme, sequence (chain, as listed by the source): as above
Dual luciferase reporter (DLR) with N(ε)-tert.-butyl-oxycarbonyl-lysine at K529 of the Firefly enzyme, sequence (chain, as listed by the source): as above

B1: Dealocase-1 (protein)
chain: KPRVLVLTGAGISAESGIRTFRAADGLWEEHRVEDVSTPEGFDRDPELVQAFWNAWRRQLQQPEIQPNAAHLALAKLQDALGDRFLLVTQNVDNLHERAGNTNVIHMHGELLKVRCSQSGQVLDWTGDVTPEDKCHCCQFPAPLRPHVVWFGEMPLGMDEIYMALSMADIFIAIGTSGHVYPAAGFVHEAKLHGAHTVELNLEPSQVGNEFAEKYYGPASQVVPEFVEKLLKGLKAGSIA
For the protein B1, the DLR activity [rel. to wild-type] (rel. to wild-type) turned out to be 0.49 in series [1], 2.88 in series [2], 10.8 in series [3] and 5.73 in series [4].

B2: Dealocase-2 (protein)
chain: KPRVLVLTGAGISAESGIRTFRAADGLWEEHRVEDVGTPEGFDRDPELVQAFYNAGRRQLQQPEIQPNAAHLALAKLQDALGDRFLLVTQNVDNLHERAGNTNVIHMHGELLKVRCSQSGQVLDWTGDVTPEDKCHCCQFPAPLRPHVVWFGEMPLGMDEIYMALSMADIFIAIGTSGHVYPAAGFVHEAKLHGAHTVELNLEPSQVGNEFAEKYYGPASQVVPEFVEKLLKGLKAGSIA
Turning to B2, the DLR activity [rel. to wild-type] (rel. to wild-type) in series [1] amounted to 1.19; in series [2], 0.77; in series [3], 10.2; in series [4], 2.11.

B3: Decrotonylase-1 (protein)
chain: KPRVLVLTGAGISAESGIRTFRAADGLWEEHRVEDVRTPEGFDRDPELVQAFGNATRRQLQQPEIQPNAAHLALAKLQDALGDRFLLVTQNRDNLHERAGNTNVIHMHGELLKVRCSQSGQVLDWTGDVTPEDKCHCCQFPAPLRPHLVWFGEMPLGMDEIYMALSMADIFIAIGTSGHVYPAAGFVHEAKLHGAHTVELNLEPSQVGNEFAEKYYGPASQVVPEFVEKLLKGLKAGSIA
On to B3, for which the DLR activity [rel. to wild-type] (rel. to wild-type) in series [1] was determined as 0; in series [2], 0.04; in series [3] it was 0.02; in series [4] it was 0.1.

B4: Dealocase-3 (protein)
chain: KPRVLVLTGAGISAESGIRTFRAADGLWEEHRVEDVATPEGFDRDPELVQAFYNARRRQLQQPEIQPNAAHLALAKLQDALGDRFLLVTQNSDNLHERAGNTNVIHMHGELLKVRCSQSGQVLDWTGDVTPEDKCHCCQFPAPLRPHLVWFGEMPLGMDEIYMALSMADIFIAIGTSGHVYPAAGFVHEAKLHGAHTVELNLEPSQVGNEFAEKYYGPASQVVPEFVEKLLKGLKAGSIA
Regarding B4, the DLR activity [rel. to wild-type] (rel. to wild-type) in series [1] stood at 0.35; in series [2] it was 0.65; in series [3], 6; in series [4], 1.

B5: Debocylase-1 (protein)
chain: KPRVLVLTGAGISAESGIRTFRAADGLWEEHRVEDVATPEGFDRDPELVQAFYNARRRQLQQPEIQPNAAHLALAKLQDALGDRFLLVTQNVDNLHERAGNTNVIHMHGELLKVRCSQSGQVLDWTGDVTPEDKCHCCQFPAPLRPHLVWFGEMPLGMDEIYMALSMADIFIAIGTSGHVYPAAGFVHEAKLHGAHTVELNLEPSQVGNEFAEKYYGPASQVVPEFVEKLLKGLKAGSIA
Take B5: the DLR activity [rel. to wild-type] (rel. to wild-type) in series [1] is 1.25; in series [2], 8.65; in series [3], 8.35; in series [4], 2.9.

Source of the values: patent US20200240995.
